Experimental data from publication PMC9482650, “Quantitative fragmentomics allow affinity mapping of interactomes” (Nature Communications, 2022).

B1: GAGE12J, A6NER3 (peptide)
chain: PEEGKKQSQC
B2: ITK, Q08881 (peptide)
chain: QLAEIAESGL

These binders were tested against T1, HTRA4, P83105 (assay: holdup assay). Conditions: plain residues with an end cap or a label only (N-terminal biotin on a linker: ado-ado).
T1 sequence (P83105 378-476, limits assumed, looked up): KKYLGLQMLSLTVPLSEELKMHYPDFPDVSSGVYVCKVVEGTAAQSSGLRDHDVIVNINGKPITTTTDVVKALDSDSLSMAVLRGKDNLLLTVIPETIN
Set-up: key: below the threshold = too weak to quantify, mostly under pKd 3.1 to 4

| Binder | pKd |
| --- | --- |
| B1 | below the threshold |
| B2 | below the threshold |

These binders were tested against DLG1_1, Q12959 (assay: holdup assay). Conditions: plain residues with an end cap or a label only (N-terminal biotin on a linker: ado-ado).
Set-up: key: below the threshold = too weak to quantify, mostly under pKd 3.1 to 4

| Binder | pKd |
| --- | --- |
| B1 | below the threshold |
| B2 | below the threshold |

These binders were tested against DLG1_3, Q12959 (assay: holdup assay). Conditions: plain residues with an end cap or a label only (N-terminal biotin on a linker: ado-ado).
Set-up: key: below the threshold = too weak to quantify, mostly under pKd 3.1 to 4

| Binder | pKd |
| --- | --- |
| B1 | below the threshold |
| B2 | 3.86 |

These binders were tested against DLG1_2, Q12959 (assay: holdup assay). Conditions: plain residues with an end cap or a label only (N-terminal biotin on a linker: ado-ado).
Set-up: key: below the threshold = too weak to quantify, mostly under pKd 3.1 to 4

| Binder | pKd |
| --- | --- |
| B1 | below the threshold |
| B2 | below the threshold |

What follows are binders tested against MAST1, Q9Y2H9 (assay: holdup assay). Conditions: plain residues with an end cap or a label only (N-terminal biotin on a linker: ado-ado).
Sequence of MAST1, Q9Y2H9 (Q9Y2H9 962-1065): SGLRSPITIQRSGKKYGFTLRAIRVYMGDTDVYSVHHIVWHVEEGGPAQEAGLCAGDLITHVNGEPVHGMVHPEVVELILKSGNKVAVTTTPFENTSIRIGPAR
Set-up: key: below the threshold = too weak to quantify, mostly under pKd 3.1 to 4

| Binder | pKd |
| --- | --- |
| B1 | 3.6 |
| B2 | 4.54 |

These binders were tested against T2, APBA1_2, Q02410 (assay: holdup assay). Conditions: plain residues with an end cap or a label only (N-terminal biotin on a linker: ado-ado).
T2 sequence (Q02410 742-832, limits assumed, looked up): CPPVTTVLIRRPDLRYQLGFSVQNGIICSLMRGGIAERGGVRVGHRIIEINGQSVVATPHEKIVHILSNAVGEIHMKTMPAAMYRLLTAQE
Set-up: key: below the threshold = too weak to quantify, mostly under pKd 3.1 to 4

| Binder | pKd |
| --- | --- |
| B1 | below the threshold |
| B2 | below the threshold |

The binders below were run against CASK, O14936 (assay: holdup assay). Conditions: plain residues with an end cap or a label only (N-terminal biotin on a linker: ado-ado).
Sequence of CASK, O14936 (O14936 487-570): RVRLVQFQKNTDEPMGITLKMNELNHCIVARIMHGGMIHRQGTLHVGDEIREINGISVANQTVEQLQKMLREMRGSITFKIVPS
Set-up: key: below the threshold = too weak to quantify, mostly under pKd 3.1 to 4

| Binder | pKd |
| --- | --- |
| B1 | below the threshold |
| B2 | below the threshold |

The binders below were run against T3, DFNB31_2, Q9P202 (assay: holdup assay). Conditions: plain residues with an end cap or a label only (N-terminal biotin on a linker: ado-ado).
T3 sequence (Q9P202 274-371, limits assumed, looked up): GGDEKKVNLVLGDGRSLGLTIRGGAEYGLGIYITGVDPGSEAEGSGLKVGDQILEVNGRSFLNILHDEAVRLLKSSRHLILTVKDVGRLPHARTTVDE
Set-up: key: below the threshold = too weak to quantify, mostly under pKd 3.1 to 4

| Binder | pKd |
| --- | --- |
| B1 | below the threshold |
| B2 | below the threshold |

What follows are binders tested against T4, LNX2_3, Q8N448 (assay: holdup assay). Conditions: plain residues with an end cap or a label only (N-terminal biotin on a linker: ado-ado).
T4 sequence (Q8N448 463-564, limits assumed, looked up): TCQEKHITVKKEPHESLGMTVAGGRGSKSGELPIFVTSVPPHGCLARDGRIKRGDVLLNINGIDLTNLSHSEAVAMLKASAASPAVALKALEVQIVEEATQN
Set-up: key: below the threshold = too weak to quantify, mostly under pKd 3.1 to 4

| Binder | pKd |
| --- | --- |
| B1 | below the threshold |
| B2 | below the threshold |

These binders were tested against T5, TIAM2, Q8IVF5 (assay: holdup assay). Conditions: plain residues with an end cap or a label only (N-terminal biotin on a linker: ado-ado).
T5 sequence (Q8IVF5 885-986, limits assumed, looked up): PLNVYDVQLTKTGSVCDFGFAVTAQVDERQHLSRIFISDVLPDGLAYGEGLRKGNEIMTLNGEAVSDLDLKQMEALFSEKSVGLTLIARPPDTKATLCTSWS
Set-up: key: below the threshold = too weak to quantify, mostly under pKd 3.1 to 4

| Binder | pKd |
| --- | --- |
| B1 | 3.87 |
| B2 | below the threshold |

The binders below were run against NHERF2_2, Q15599 (assay: holdup assay). Conditions: plain residues with an end cap or a label only (N-terminal biotin on a linker: ado-ado).
Sequence of NHERF2_2, Q15599 (Q15599 142-238): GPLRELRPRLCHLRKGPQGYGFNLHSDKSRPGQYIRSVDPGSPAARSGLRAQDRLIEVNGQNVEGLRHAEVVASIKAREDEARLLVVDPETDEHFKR
Set-up: key: below the threshold = too weak to quantify, mostly under pKd 3.1 to 4

| Binder | pKd |
| --- | --- |
| B1 | 3.48 |
| B2 | 4.27 |

The binders below were run against NHERF4_2, Q86UT5 (assay: holdup assay). Conditions: plain residues with an end cap or a label only (N-terminal biotin on a linker: ado-ado).
Sequence of NHERF4_2, Q86UT5 (Q86UT5 220-308): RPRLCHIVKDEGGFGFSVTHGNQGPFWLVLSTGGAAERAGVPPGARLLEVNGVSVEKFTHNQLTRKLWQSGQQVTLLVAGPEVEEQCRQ
Set-up: key: below the threshold = too weak to quantify, mostly under pKd 3.1 to 4

| Binder | pKd |
| --- | --- |
| B1 | below the threshold |
| B2 | 3.57 |

The binders below were run against T6, TJP3_3, O95049 (assay: holdup assay). Conditions: plain residues with an end cap or a label only (N-terminal biotin on a linker: ado-ado).
T6 sequence (O95049 375-456, limits assumed, looked up): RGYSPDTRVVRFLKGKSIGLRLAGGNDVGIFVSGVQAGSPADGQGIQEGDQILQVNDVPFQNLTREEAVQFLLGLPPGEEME
Set-up: key: below the threshold = too weak to quantify, mostly under pKd 3.1 to 4

| Binder | pKd |
| --- | --- |
| B1 | below the threshold |
| B2 | below the threshold |

What follows are binders tested against GRIP2_6, Q9C0E4 (assay: holdup assay). Conditions: plain residues with an end cap or a label only (N-terminal biotin on a linker: ado-ado).
Sequence of GRIP2_6, Q9C0E4 (Q9C0E4 648-740): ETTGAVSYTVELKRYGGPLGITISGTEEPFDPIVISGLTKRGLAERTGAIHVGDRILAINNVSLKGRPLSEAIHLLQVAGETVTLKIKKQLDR
Set-up: key: below the threshold = too weak to quantify, mostly under pKd 3.1 to 4

| Binder | pKd |
| --- | --- |
| B1 | below the threshold |
| B2 | 3.48 |

Each binder was assayed against T7, SIPA1L2, Q9P2F8 (assay: holdup assay). Conditions: plain residues with an end cap or a label only (N-terminal biotin on a linker: ado-ado).
T7 sequence (Q9P2F8 945-1036, limits assumed, looked up): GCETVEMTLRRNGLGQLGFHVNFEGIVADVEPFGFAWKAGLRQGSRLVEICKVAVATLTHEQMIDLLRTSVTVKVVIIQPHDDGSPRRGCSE
Set-up: key: below the threshold = too weak to quantify, mostly under pKd 3.1 to 4

| Binder | pKd |
| --- | --- |
| B1 | below the threshold |
| B2 | 3.67 |

These binders were tested against SCRIB_1, Q14160 (assay: holdup assay). Conditions: plain residues with an end cap or a label only (N-terminal biotin on a linker: ado-ado).
Sequence of SCRIB_1, Q14160 (Q14160 718-814): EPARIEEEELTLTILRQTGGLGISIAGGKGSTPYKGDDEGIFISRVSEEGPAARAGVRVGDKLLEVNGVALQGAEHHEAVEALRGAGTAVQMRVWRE
Set-up: key: below the threshold = too weak to quantify, mostly under pKd 3.1 to 4

| Binder | pKd |
| --- | --- |
| B1 | below the threshold |
| B2 | 3.75 |

The binders below were run against T8, LRRC7, Q96NW7 (assay: holdup assay). Conditions: plain residues with an end cap or a label only (N-terminal biotin on a linker: ado-ado).
T8 sequence (Q96NW7 1440-1537, limits assumed, looked up): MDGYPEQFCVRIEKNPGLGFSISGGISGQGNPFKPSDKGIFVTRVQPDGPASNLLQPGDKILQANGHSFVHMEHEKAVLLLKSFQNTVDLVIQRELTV
Set-up: key: below the threshold = too weak to quantify, mostly under pKd 3.1 to 4

| Binder | pKd |
| --- | --- |
| B1 | below the threshold |
| B2 | below the threshold |

The binders below were run against Inadl_3, Q8NI35 (assay: holdup assay). Conditions: plain residues with an end cap or a label only (N-terminal biotin on a linker: ado-ado).
Sequence of Inadl_3, Q8NI35 (Q8NI35 359-469): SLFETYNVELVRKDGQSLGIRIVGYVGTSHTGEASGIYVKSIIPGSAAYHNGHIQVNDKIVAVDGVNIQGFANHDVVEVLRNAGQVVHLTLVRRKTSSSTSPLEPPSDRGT
Set-up: key: below the threshold = too weak to quantify, mostly under pKd 3.1 to 4

| Binder | pKd |
| --- | --- |
| B1 | below the threshold |
| B2 | below the threshold |

Each binder was assayed against T9, PDZD7_3, Q9H5P4 (assay: holdup assay). Conditions: plain residues with an end cap or a label only (N-terminal biotin on a linker: ado-ado).
T9 sequence (Q9H5P4 857-944, limits assumed, looked up): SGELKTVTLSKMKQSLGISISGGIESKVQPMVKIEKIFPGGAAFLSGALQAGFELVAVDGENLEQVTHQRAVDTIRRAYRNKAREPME
Set-up: key: below the threshold = too weak to quantify, mostly under pKd 3.1 to 4

| Binder | pKd |
| --- | --- |
| B1 | below the threshold |
| B2 | below the threshold |

Each binder was assayed against T10, GRIP1_5, Q9Y3R0 (assay: holdup assay). Conditions: plain residues with an end cap or a label only (N-terminal biotin on a linker: ado-ado).
T10 sequence (Q9Y3R0 568-668, limits assumed, looked up): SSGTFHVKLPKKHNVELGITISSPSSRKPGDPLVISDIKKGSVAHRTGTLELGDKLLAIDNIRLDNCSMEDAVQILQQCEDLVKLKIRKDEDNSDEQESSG
Set-up: key: below the threshold = too weak to quantify, mostly under pKd 3.1 to 4

| Binder | pKd |
| --- | --- |
| B1 | below the threshold |
| B2 | below the threshold |

The binders below were run against T11, NHERF3_1, Q5T2W1 (assay: holdup assay). Conditions: plain residues with an end cap or a label only (N-terminal biotin on a linker: ado-ado).
T11 sequence (Q5T2W1 4-100, limits assumed, looked up): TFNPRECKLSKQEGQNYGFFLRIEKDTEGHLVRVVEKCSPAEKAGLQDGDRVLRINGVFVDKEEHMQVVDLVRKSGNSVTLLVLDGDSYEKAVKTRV
Set-up: key: below the threshold = too weak to quantify, mostly under pKd 3.1 to 4

| Binder | pKd |
| --- | --- |
| B1 | 3.68 |
| B2 | 4.76 |

Each binder was assayed against T12, APBA2_1, Q99767 (assay: holdup assay). Conditions: plain residues with an end cap or a label only (N-terminal biotin on a linker: ado-ado).
T12 sequence (Q99767 563-664, limits assumed, looked up): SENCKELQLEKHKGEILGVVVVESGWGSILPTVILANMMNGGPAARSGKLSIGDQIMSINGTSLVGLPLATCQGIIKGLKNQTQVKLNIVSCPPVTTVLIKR
Set-up: key: below the threshold = too weak to quantify, mostly under pKd 3.1 to 4

| Binder | pKd |
| --- | --- |
| B1 | below the threshold |
| B2 | 3.58 |

Each binder was assayed against GIPC2, Q8TF65 (assay: holdup assay). Conditions: plain residues with an end cap or a label only (N-terminal biotin on a linker: ado-ado).
Sequence of GIPC2, Q8TF65 (Q8TF65 112-203): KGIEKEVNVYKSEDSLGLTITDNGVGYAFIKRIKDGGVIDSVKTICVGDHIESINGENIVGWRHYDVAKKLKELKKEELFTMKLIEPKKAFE
Set-up: key: below the threshold = too weak to quantify, mostly under pKd 3.1 to 4

| Binder | pKd |
| --- | --- |
| B1 | 3.62 |
| B2 | 3.63 |

The binders below were run against T13, DFNB31_1, Q9P202 (assay: holdup assay). Conditions: plain residues with an end cap or a label only (N-terminal biotin on a linker: ado-ado).
T13 sequence (Q9P202 135-233, limits assumed, looked up): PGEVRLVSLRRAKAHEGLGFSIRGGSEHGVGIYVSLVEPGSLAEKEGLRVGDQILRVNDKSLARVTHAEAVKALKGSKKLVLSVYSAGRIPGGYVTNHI
Set-up: key: below the threshold = too weak to quantify, mostly under pKd 3.1 to 4

| Binder | pKd |
| --- | --- |
| B1 | below the threshold |
| B2 | 3.97 |

The binders below were run against MAGI2_6, Q86UL8 (assay: holdup assay). Conditions: plain residues with an end cap or a label only (N-terminal biotin on a linker: ado-ado).
Sequence of MAGI2_6, Q86UL8 (Q86UL8 1141-1229): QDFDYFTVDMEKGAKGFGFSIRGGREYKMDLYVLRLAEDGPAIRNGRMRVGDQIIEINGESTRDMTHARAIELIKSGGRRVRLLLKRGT
Set-up: key: below the threshold = too weak to quantify, mostly under pKd 3.1 to 4

| Binder | pKd |
| --- | --- |
| B1 | below the threshold |
| B2 | 3.68 |
